Measured values from article PMC8160069, “Ethacrynic acid targets GSTM1 to ameliorate obesity by promoting browning of white adipocytes” (Protein & Cell, 2020).

Target: the molecule itself
Test: crystal structure; co-crystal structure of celastrol with mouse GSTP1

B1: mouse GSTP1 (enzyme, UniProt P19157 1-210, looked up)
chain: MPPYTIVYFPVRGRCEAMRMLLADQGQSWKEEVVTIDTWMQGLLKPTCLYGQLPKFEDGDLTLYQSNAILRHLGRSLGLYGKNQREAAQMDMVNDGVEDLRGKYVTLIYTNYENGKNDYVKALPGHLKPFETLLSQNQGGKAFIVGDQISFADYNLLDLLLIHQVLAPGCLDNFPLLSAYVARLSARPKIKAFLSSPEHVNRPINGNGKQ
notes: GSTP1 (glutathione S-transferase pi 1), mouse; co-crystallised with celastrol; also called GST pi
**Q.** Does B1 bind?
**A.** binds
